This data set deals with the molecule itself. Kind of data set: gel filtration (self-association / dimerization check).

B1: TagRFP-T (other)
chain: MVSKGEELIKENMHMKLYMEGTVNNHHFKCTSEGEGKPYEGTQTMRIKVVEGGPLPFAFDILATSFMYGSRTFINHTQGIPDFFKQSFPEGFTWERVTTYEDGGVLTATQDTSLQDGCLIYNVKIRGVNFPSNGPVMQKKTLGWEANTEMLYPADGGLEGRTDMALKLVGGGHLICNFKTTYRSKKPAKNLKMPGVYYVDHRLERIKEADKETYVEQHEVAVARYCDLPSKLGHKLNGMDELYK
notes: Engineered fluorescent protein, the S158T variant of TagRFP (eqFP578 lineage); also called TagRFP S158T; not shown: N-terminal 6xHis tag and linker encoded by the pBAD expression vector
Consider B1, for which the binding result was “no binding”.

B2: mOrange2 (other)
chain: MVSKGEENNMAIIKEFMRFKVRMEGSVNGHEFEIEGEGEGRPYEGFQTAKLKVTKGGPLPFAWDILSPHFTYGSKAYVKHPADIPDYFKLSFPEGFKWERVMNYEDGGVVTVTQDSSLQDGEFIYKVKLRGTNFPSDGPVMQKKTMGWEASSERMYPEDGALKGKIKMRLKLKDGGHYTSEVKTTYKAKKPVQLPGAYIVDIKLDITSHNEDYTIVEQYERAEGRHSTGGMDELYK
notes: Engineered monomeric orange fluorescent protein derived from mOrange (DsRed lineage); also called mOrange Q64H/F99Y/E160K/G196D; not shown: N-terminal 6xHis tag and linker encoded by the pBAD expression vector
For B2, the binding result is on record as “no binding”.

The record behind these values is patent US20090203035A1 (University of California, published 2009).
